Patent publication US5780265A, “Kunitz type plasma kallikrein inhibitors” (Genentech, Inc., priority 1995, dated 1998)
Like-named read-outs stand apart in the source and are kept apart here. Bridges are numbered along the chain shown (N, C = ends). Where no end group is shown, it is not given here.

Key:
[1] = molecular target: T1, plasma kallikrein (Homo sapiens, UniProt P03952); test: Apparent equilibrium dissociation constant (Ki*) with plasma kallikrein; assay type: biochemical
T1 construct: Human plasma kallikrein and Factor XIIa were purchased; purchased Enzyme Research Laboratories, Inc. (South Bend, Ind.)
Method: Reactions (200 μL) were carried out in microtiter plates and the rate substrate (0.7 mM S2302) was monitored at 405 nm following a 1.5 h incubation. Plots of the fractional rate versus inhibitor concentration were fit by nonlinear regression analysis to Equation 1 to determine apparent equilibrium dissociation constants (Ki *):

[2] = molecular target: T1, plasma kallikrein; test: Specificity assay, plasma kallikrein; assay type: biochemical; settings: 100 nM inhibitor; plasma kallikrein 3.5 nM, 0.7 mM S2302; 2 h room temperature
Method: (§1) Aliquots (30 μL) of various inhibitors diluted to 500 nM were incubated with each protease (100 μL) in the appropriate buffer. After incubation of the substrate/inhibitor mixes at room temperature for 2 h, the appropriate substrate (20 μL) was added, and the absorbance at 405 nm was monitored. […] The FXIa assay also contained 1 mg/mL BSA. The concentration of FXIa throughout refers to the concentration of active sites. For this experiment, the concentrations of thrombin, TF-FVIIa, FXa, FXIa, FXIIa, and plasmin are approximate and are determined based upon the manufacturers' specifications.
(§2) Serine proteases (1 to 20 nM) were assayed in the presence of 100 nM inhibitor. […] The degree to which FXIa was inhibited by selected inhibitors including the consensus mutants was further investigated by measuring the Ki *.

[3] = molecular target: T2, TF-FVIIa (tissue factor-Factor VIIa) (Homo sapiens, UniProt P08709); test: Specificity assay, TF-FVIIa; assay type: biochemical; settings: 100 nM inhibitor; TF 77 nM-FVIIa 14 nM, 0.7 mM S2366
T2 construct: purchased Haematologic Technologies Inc. (FVIIa); TF made in house; host or cells: E. coli (TF 1-243)
Method: as §1, §2

[4] = molecular target: T3, thrombin (Homo sapiens, UniProt P00734); test: Specificity assay, thrombin; assay type: biochemical; settings: 100 nM inhibitor; thrombin 6.2 nM, 0.7 mM S2366
T3 construct: purchased Haematologic Technologies Inc. (Essex Jct., Vt.)
Method: (§3) Aliquots (30 μL) of various inhibitors diluted to 500 nM were incubated with each protease (100 μL) in the appropriate buffer. After incubation of the substrate/inhibitor mixes at room temperature for 2 h, the appropriate substrate (20 μL) was added, and the absorbance at 405 nm was monitored. […] For this experiment, the concentrations of thrombin, TF-FVIIa, FXa, FXIa, FXIIa, and plasmin are approximate and are determined based upon the manufacturers' specifications.
(§4) Serine proteases (1 to 20 nM) were assayed in the presence of 100 nM inhibitor.

[5] = molecular target: T4, Factor XIIa (Homo sapiens, UniProt P00748); test: Specificity assay, Factor XIIa; assay type: biochemical; settings: 100 nM inhibitor; 0.7 mM S2302
T4 construct: purchased Enzyme Research Laboratories, Inc. (South Bend, Ind.)
T4 sequence (P00748 373-615 limits assumed): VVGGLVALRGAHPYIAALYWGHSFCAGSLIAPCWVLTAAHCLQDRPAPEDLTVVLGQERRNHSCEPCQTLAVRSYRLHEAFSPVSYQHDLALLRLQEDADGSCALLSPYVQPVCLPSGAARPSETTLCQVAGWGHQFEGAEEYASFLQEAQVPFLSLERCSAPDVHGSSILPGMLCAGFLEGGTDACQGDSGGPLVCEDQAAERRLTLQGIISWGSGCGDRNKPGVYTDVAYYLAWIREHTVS
T4 sequence (P00748 20-372 limits assumed): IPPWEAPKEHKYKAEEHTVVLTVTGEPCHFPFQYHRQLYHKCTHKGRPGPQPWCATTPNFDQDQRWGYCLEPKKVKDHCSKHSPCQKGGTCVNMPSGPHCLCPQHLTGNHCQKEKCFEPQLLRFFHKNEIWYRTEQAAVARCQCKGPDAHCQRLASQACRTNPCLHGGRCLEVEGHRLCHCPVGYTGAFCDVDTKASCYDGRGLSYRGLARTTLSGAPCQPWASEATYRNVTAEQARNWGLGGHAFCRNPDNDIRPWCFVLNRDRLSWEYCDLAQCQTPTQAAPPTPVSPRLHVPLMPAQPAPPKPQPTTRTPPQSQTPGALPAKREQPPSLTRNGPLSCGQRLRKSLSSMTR
Method: as §3, §4

[6] = molecular target: T5, Factor Xa (Homo sapiens, UniProt P00742); test: Specificity assay, Factor Xa; assay type: biochemical; settings: 100 nM inhibitor; FXa 2.5 nM, 0.7 mM Spectrozyme fXa
T5 construct: purchased Haematologic Technologies Inc. (Essex Jct., Vt.)
Method: as §3, §4

[7] = molecular target: T6, Factor XIa (Homo sapiens, UniProt P03951); test: Specificity assay, Factor XIa; assay type: biochemical; settings: 100 nM inhibitor; FXIa […], 0.7 mM S2366, 1 mg/mL BSA
T6 construct: purchased Haematologic Technologies Inc. (Essex Jct., Vt.)
Method: as §1, §2

[8] = molecular target: T7, plasmin (Homo sapiens, UniProt P00747); test: Specificity assay, plasmin; assay type: biochemical; settings: 100 nM inhibitor; for fraction of remaining proteolytic activity, plasmin: plasmin 32 nM, 0.7 mM S2251
T7 construct: Human plasmin, S-2302, S-2251, and S-2366 were purchased from Kabi Vitrum (Sweden); purchased Kabi Vitrum (Sweden)
Method: as §1, §2

[9] = molecular target: T8, activated protein C (Homo sapiens, UniProt P04070); test: Specificity assay, activated protein C; assay type: biochemical; settings: 100 nM inhibitor; activated protein C 7.6 nM, 0.7 mM S2366
T8 construct: purchased Haematologic Technologies Inc. (Essex Jct., Vt.)
Method: as §1, §2

[10] = molecular target: T6, Factor XIa; test: Apparent equilibrium dissociation constant (Ki*) with FXIa; assay type: biochemical; settings: at least 3 independent measurements
Method: as §2

[11] = molecular target: plasma kallikrein; settings: Seymour et al. 1994; read-out: Ki for plasma kallikrein (literature); cited from earlier work
[12] = 25° C., pH 7.5, 0.7 mM S2302, 1.5 h incubation, at least 3 independent measurements, read-out: Plasma Kallikrein Ki*

T6 sequence (P03951 388-625 limits assumed): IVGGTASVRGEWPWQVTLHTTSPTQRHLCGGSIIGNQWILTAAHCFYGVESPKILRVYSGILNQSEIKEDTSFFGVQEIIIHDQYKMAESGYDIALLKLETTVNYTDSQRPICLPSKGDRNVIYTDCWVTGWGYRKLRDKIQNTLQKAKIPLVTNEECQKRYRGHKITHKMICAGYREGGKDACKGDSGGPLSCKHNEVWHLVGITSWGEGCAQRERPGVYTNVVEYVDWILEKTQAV
T6 sequence (P03951 19-387 limits assumed): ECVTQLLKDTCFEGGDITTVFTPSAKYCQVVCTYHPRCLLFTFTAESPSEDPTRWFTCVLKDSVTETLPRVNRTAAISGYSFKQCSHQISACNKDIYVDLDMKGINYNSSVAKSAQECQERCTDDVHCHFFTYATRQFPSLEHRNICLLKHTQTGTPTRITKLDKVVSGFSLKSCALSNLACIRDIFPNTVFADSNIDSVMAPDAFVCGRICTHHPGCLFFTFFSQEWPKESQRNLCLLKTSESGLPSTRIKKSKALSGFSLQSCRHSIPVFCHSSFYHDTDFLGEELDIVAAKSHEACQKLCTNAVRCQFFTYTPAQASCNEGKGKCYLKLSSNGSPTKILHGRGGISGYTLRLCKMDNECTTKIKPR
T2 sequence (P08709 213-466 limits assumed): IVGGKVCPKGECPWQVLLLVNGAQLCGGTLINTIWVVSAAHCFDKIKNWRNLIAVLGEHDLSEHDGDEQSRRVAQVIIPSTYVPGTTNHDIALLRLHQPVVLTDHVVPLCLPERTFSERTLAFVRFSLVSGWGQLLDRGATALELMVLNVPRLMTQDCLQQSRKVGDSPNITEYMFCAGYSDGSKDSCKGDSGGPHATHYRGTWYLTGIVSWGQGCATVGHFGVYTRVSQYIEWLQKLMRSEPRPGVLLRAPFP
T2 sequence (P08709 61-212 limits assumed): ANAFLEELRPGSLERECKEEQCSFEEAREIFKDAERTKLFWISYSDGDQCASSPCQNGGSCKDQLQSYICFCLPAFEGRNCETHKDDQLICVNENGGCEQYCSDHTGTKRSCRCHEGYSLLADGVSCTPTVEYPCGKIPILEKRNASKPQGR
T2 sequence (P13726 33-275 partner limits assumed): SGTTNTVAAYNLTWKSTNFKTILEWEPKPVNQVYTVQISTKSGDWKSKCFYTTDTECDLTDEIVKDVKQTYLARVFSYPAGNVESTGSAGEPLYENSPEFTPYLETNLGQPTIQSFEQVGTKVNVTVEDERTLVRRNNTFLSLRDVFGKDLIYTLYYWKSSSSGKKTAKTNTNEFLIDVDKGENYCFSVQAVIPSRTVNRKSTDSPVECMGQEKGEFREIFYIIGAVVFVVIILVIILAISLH
T5 sequence (P00742 235-488 limits assumed): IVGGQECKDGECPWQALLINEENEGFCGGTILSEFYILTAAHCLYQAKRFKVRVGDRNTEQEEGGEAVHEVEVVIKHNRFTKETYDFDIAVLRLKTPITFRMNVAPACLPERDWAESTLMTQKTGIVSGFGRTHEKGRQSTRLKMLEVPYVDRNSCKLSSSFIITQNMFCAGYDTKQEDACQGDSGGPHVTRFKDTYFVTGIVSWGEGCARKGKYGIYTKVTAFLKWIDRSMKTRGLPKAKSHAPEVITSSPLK
T5 sequence (P00742 41-179 limits assumed): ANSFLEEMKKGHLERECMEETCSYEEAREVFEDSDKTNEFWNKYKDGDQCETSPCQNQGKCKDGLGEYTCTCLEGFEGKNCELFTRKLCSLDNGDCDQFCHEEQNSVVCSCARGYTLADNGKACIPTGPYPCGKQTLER
T8 sequence (P04070 212-461 limits assumed): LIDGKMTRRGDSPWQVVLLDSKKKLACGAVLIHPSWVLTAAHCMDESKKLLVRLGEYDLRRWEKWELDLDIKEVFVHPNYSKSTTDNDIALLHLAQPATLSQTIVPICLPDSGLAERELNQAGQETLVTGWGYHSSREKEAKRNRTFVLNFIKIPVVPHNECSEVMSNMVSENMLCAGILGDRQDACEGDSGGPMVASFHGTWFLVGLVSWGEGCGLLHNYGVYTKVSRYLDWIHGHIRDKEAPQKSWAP
T8 sequence (P04070 43-197 limits assumed): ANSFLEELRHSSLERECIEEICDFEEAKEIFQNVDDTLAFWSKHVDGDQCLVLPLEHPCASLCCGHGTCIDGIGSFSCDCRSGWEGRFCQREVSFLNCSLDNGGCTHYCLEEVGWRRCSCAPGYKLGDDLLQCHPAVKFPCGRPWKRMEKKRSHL
T7 sequence (P00747 581-810 limits assumed): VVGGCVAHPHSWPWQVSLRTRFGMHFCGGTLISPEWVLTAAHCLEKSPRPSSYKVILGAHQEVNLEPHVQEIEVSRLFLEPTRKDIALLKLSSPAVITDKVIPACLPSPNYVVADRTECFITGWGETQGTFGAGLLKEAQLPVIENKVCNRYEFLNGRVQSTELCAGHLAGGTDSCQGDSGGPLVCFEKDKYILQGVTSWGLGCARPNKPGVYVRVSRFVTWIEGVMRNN
T7 sequence (P00747 97-580 limits assumed): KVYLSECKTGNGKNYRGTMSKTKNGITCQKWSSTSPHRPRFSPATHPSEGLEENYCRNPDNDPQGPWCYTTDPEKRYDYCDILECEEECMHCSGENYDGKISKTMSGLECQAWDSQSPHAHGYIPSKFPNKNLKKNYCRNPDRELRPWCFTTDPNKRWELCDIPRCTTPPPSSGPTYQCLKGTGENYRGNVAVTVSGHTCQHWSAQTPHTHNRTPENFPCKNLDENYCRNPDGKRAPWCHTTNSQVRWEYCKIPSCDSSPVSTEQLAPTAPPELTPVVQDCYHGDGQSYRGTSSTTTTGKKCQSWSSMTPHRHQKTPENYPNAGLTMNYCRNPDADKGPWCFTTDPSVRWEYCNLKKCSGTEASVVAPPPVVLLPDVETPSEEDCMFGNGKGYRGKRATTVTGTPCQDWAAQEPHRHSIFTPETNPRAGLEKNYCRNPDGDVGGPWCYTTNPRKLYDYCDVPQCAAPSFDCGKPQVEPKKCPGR
T1 sequence (P03952 391-638 limits assumed): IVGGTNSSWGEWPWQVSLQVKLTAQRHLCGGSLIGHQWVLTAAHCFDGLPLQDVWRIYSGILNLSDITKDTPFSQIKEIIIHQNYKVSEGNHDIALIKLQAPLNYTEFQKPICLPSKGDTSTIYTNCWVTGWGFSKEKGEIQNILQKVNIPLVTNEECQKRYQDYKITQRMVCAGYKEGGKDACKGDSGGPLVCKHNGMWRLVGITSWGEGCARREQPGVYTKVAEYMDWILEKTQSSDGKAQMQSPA
T1 sequence (P03952 20-390 limits assumed): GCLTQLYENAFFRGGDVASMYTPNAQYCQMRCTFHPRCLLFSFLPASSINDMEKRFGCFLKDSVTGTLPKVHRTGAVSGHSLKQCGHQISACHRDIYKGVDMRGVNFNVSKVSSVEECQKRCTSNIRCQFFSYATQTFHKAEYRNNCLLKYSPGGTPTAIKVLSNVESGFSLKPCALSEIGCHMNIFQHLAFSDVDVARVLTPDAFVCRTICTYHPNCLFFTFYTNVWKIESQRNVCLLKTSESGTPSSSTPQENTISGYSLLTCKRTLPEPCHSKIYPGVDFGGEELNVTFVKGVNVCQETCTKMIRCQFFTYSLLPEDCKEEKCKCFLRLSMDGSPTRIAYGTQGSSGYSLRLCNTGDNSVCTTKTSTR

Compound | Ki [1, 12] | fraction of remaining proteolytic activity, plasma kallikrein [2] | fraction of remaining proteolytic activity, TF · Factor VIIa [3] | fraction of remaining proteolytic activity, thrombin [4] | fraction of remaining proteolytic activity, Factor XIIa [5] | fraction of remaining proteolytic activity, Factor Xa [6] | fraction of remaining proteolytic activity, Factor XIa [7] | fraction of remaining proteolytic activity, plasmin [8] | fraction of remaining proteolytic activity, activated protein C [9] | Ki [10] | further results
CC(C)[C@H](N)C(=O)N[C@@H](CCCNC(=N)N)C(=O)N[C@@H](CCC(=O)O)C(=O)N[C@H](C(=O)N[C@H]1CSSC[C@@H](C(=O)NCC(=O)N[C@@H](CO)C(=O)N[C@@H](C)C(=O)O)NC(=O)[C@H](C(C)C)NC(=O)[C@H](C)NC(=O)[C@H](C)NC(=O)[C@@H]2CSSC[C@@H]3NC(=O)[C@H](CCCCN)NC(=O)CNC(=O)[C@H](CCC(=O)O)NC(=O)[C@H]([C@@H](C)O)NC(=O)[C@H](C(C)C)NC(=O)[C@H](CC(=O)O)NC(=O)[C@H](Cc4ccccc4)NC(=O)[C@H](Cc4ccc(O)cc4)NC(=O)[C@H](Cc4c[nH]c5ccccc45)NC(=O)[C@H](CCCNC(=N)N)NC(=O)[C@@H]4CCCN4C(=O)[C@H](Cc4c[nH]cn4)NC(=O)[C@H](C)NC(=O)[C@H](C)NC(=O)[C@H](CCCNC(=N)N)NC(=O)[C@H](CSSC[C@H](NC(=O)CNC(=O)CNC(=O)[C@H](Cc4ccc(O)cc4)NC(=O)[C@H](C(C)C)NC(=O)[C@H](Cc4ccccc4)NC(=O)[C@@H]4CCCN4C(=O)[C@H](C)NC3=O)C(=O)NCC(=O)NCC(=O)N[C@@H](CC(N)=O)C(=O)N[C@@H](CCCNC(=N)N)C(=O)N[C@@H](CC(N)=O)C(=O)N[C@@H](CC(N)=O)C(=O)N[C@@H](Cc3ccccc3)C(=O)N[C@@H](CC(=O)O)C(=O)N[C@@H]([C@@H](C)O)C(=O)N[C@@H](CCC(=O)O)C(=O)N[C@@H](CCC(=O)O)C(=O)N[C@@H](Cc3ccc(O)cc3)C(=O)N2)NC(=O)[C@H](Cc2c[nH]cn2)NC(=O)CNC(=O)[C@H](CCC(=O)O)NC(=O)[C@H](CCC(=O)O)NC(=O)[C@H](C)NC(=O)[C@H](CCC(N)=O)NC(=O)[C@H](CCC(=O)O)NC(=O)[C@H](CO)NC1=O)C(C)C [KALI-EV] | 0.117 ± 0.059 nM | – | – | – | – | – | – | – | – | – | –
KALI-8: APPI Kunitz domain mutant, R1 LGHCRAAIPR2 FR3 (SEQ ID NO: 3) (VREVCSEQAELGHCRAAIPRWYFDVTEGKCAPFFYGGCGGNRNNFDTEEYCAAVCGSA) | – | 0.00 | 0.94 | 0.99 | 1.00 | 1.13 | 0.00 | 0.83 | 0.89 | – | –
KALI-13: APPI Kunitz domain mutant, R1 SGHCRAAIPR2 FR3 (SEQ ID NO: 1) (VREVCSEQAESGHCRAAIPRWYFDVTEGKCAPFFYGGCGGNRNNFDTEEYCAAVCGSA) | – | 0.00 | 0.96 | 0.96 | 1.00 | 0.97 | 0.01 | 0.65 | 0.90 | – | –
KALI-30: APPI Kunitz domain mutant, R1 EGHCRAAILR2 FR3 (SEQ ID NO: 5) (VREVCSEQAEEGHCRAAILRWYFDVTEGKCAPFFYGGCGGNRNNFDTEEYCAAVCGSA) | – | 0.00 | 1.02 | 1.00 | 0.92 | 0.68 | 0.00 | 0.53 | 0.81 | – | –
KALI-46: APPI Kunitz domain mutant, R1 EGRCRASILR2 FR3 (SEQ ID NO: 33) (VREVCSEQAEEGRCRASILRWYFDVTEGKCAPFFYGGCGGNRNNFDTEEYCAAVCGSA) | – | 0.00 | 0.86 | 0.99 | 0.97 | 1.02 | 0.00 | 0.64 | 0.83 | – | –
KALI-48: APPI Kunitz domain mutant, R1 TGHCRAAIPR2 FR3 (SEQ ID NO: 2) (VREVCSEQAETGHCRAAIPRWYFDVTEGKCAPFFYGGCGGNRNNFDTEEYCAAVCGSA) | – | 0.00 | 0.95 | 0.99 | 0.99 | 0.55 | 0.01 | 0.23 | 0.92 | – | inhibition of plasmin [8]: > 60%
VREVCSEQAEDGHCRAAHPRWYFDVTEGKCAPFFYGGCGGNRNNFDTEEYCAAVCGSA (disulfide 5-55, 14-38, 30-51) [KALI-D] | 0.025 ± 0.022 nM | – | – | – | – | – | – | – | – | 5.7 ± 7 nM | –
VREVCSEQAEDGHCRAAHPRWYFDVTEGKCAPFVYGGCGGNRNNFDTEEYCAAVCGSA (disulfide 5-55, 14-38, 30-51) [KALI-DV] | 0.043 ± 0.034 nM | – | – | – | – | – | – | – | – | 1.3 ± 1.4 nM | –
VREVCSEQAEDGHCRAAHPRWYFDVTEGKCAPFYYGGCGGNRNNFDTEEYCAAVCGSA (disulfide 5-55, 14-38, 30-51) [KALI-DY] | – | – | – | – | – | – | – | – | – | 8.2 ± 3.5 nM | Ki ([1]; read-out: Ki* for plasma kallikrein): 0.015 ± 0.014 nM
VREVCSEQAEEGHCRAAHPRWYFDVTEGKCAPFFYGGCGGNRNNFDTEEYCAAVCGSA (disulfide 5-55, 14-38, 30-51) [KALI-E] | 0.103 ± 0.054 nM | – | – | – | – | – | – | – | – | 4.5 ± 4 nM | –
VREVCSEQAEEGHCRAAHPRWYFDVTEGKCAPFYYGGCGGNRNNFDTEEYCAAVCGSA (disulfide 5-55, 14-38, 30-51) [KALI-EY] | 0.98 ± 0.075 nM | – | – | – | – | – | – | – | – | 7.3 ± 5.5 nM | –
VREVCSEQAEPGHCRAAHPRWYFDVTEGKCAPFFYGGCGGNRNNFDTEEYCAAVCGSA (disulfide 5-55, 14-38, 30-51) [KALI-P] | 0.2 ± 0.099 nM | – | – | – | – | – | – | – | – | 13.8 ± 17.4 nM | –
VREVCSEQAEPGHCRAAHPRWYFDVTEGKCAPFVYGGCGGNRNNFDTEEYCAAVCGSA (disulfide 5-55, 14-38, 30-51) [KALI-PV] | 0.166 ± 0.07 nM | – | – | – | – | – | – | – | – | 4.1 ± 5.2 nM | –
VREVCSEQAEPGHCRAAHPRWYFDVTEGKCAPFYYGGCGGNRNNFDTEEYCAAVCGSA (disulfide 5-55, 14-38, 30-51) [KALI-PY] | 0.136 ± 0.081 nM | – | – | – | – | – | – | – | – | 11.7 ± 11.9 nM | –
ecotin: a 142 residue protein from E. coli | – | – | – | – | – | – | – | – | – | – | Ki [11]: ~0.16 nM
